Experimental data taken from the supplement of paper PMC9112550, “Optimization of the antimicrobial peptide Bac7 by deep mutational scanning” (BMC Biology, 2022).

Tested on: Escherichia coli TOP10
Assay: shrunken log2 fold change of peptide-encoding DNA abundance (4.5 h post-induction vs induction); higher = less antimicrobial activity (less host growth inhibition)
Conditions: time post-induction: 4.5 h; library: site-saturation at positions 5, 18, 19, 20
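Further: peptides expressed intracellularly from a pBAD plasmid library in pooled LB shake-flask culture, induced with 0.3% L-arabinose, DNA abundance read by NGS, three biological replicates, DESeq2 with apeglm shrinkage.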

Point of comparison: RRIRMRPPRLPRPRPRPARKPRP, “shrunken log2 fold change” value 1.29. Against it:
- RRIRKRPPRLPRPRPRPIGPPRP — lower, 0.0335
- RRIRLRPPRLPRPRPRPEYRPRP — lower, -0.0221
- RRIRSRPPRLPRPRPRPNCDPRP — lower, -0.00648
- RRIRWRPPRLPRPRPRPVYQPRP — lower, -0.196
- RRIRTRPPRLPRPRPRPSLHPRP — lower, -0.604
- RRIRDRPPRLPRPRPRPFVNPRP — lower, -0.254
- RRIRQRPPRLPRPRPRPNGFPRP — lower, -0.258
- RRIRPRPPRLPRPRPRPWIPPRP — lower, -0.225
- RRIRARPPRLPRPRPRPKGCPRP — within 0.2 log units, 1.4
- RRIRSRPPRLPRPRPRPWCTPRP — lower, -0.255
- RRIRWRPPRLPRPRPRPGYDPRP — lower, -0.0098
- RRIRARPPRLPRPRPRPNFKPRP — lower, 0.0298
- RRIRDRPPRLPRPRPRPKFDPRP — lower, -0.0895
- RRIRSRPPRLPRPRPRPVNGPRP — lower, -0.00994
- RRIRTRPPRLPRPRPRPCVDPRP — lower, 0.0267
- RRIRKRPPRLPRPRPRPNDQPRP — lower, -0.101
- RRIRQRPPRLPRPRPRPDMKPRP — lower, 0.26
- RRIRNRPPRLPRPRPRPVKWPRP — lower, -0.286
- RRIRVRPPRLPRPRPRPIWWPRP — within 0.2 log units, 1.44
- RRIRIRPPRLPRPRPRPKTTPRP — lower, -0.301
- RRIRARPPRLPRPRPRPFVPPRP — lower, -0.0963
- RRIRHRPPRLPRPRPRPRRNPRP — lower, -0.104
- RRIRSRPPRLPRPRPRPGQYPRP — lower, -0.113
- RRIRYRPPRLPRPRPRPCMIPRP — lower, -0.731
- RRIRLRPPRLPRPRPRPDKKPRP — lower, -0.0455
- RRIRPRPPRLPRPRPRPQFDPRP — lower, -0.0475
- RRIRVRPPRLPRPRPRPKGMPRP — lower, 0.109
- RRIRSRPPRLPRPRPRPACCPRP — lower, 0.303
- RRIRIRPPRLPRPRPRPGYCPRP — lower, -0.371
- RRIRWRPPRLPRPRPRPCWCPRP — lower, -0.215
- RRIRKRPPRLPRPRPRPPCAPRP — lower, 0.804
- RRIRARPPRLPRPRPRPVLPPRP — lower, 0.286
- RRIRFRPPRLPRPRPRPMRIPRP — lower, 0.068
- RRIRIRPPRLPRPRPRPIRAPRP — lower, -0.634
- RRIRPRPPRLPRPRPRPMWAPRP — lower, -0.201
- RRIRCRPPRLPRPRPRPRPVPRP — lower, 0.766
- RRIRYRPPRLPRPRPRPSGPPRP — lower, -0.395
- RRIRSRPPRLPRPRPRPDKVPRP — lower, 0.151
- RRIRFRPPRLPRPRPRPQPHPRP — lower, 0.166
- RRIRGRPPRLPRPRPRPWGKPRP — lower, -0.0896
- RRIRNRPPRLPRPRPRPVGNPRP — lower, -0.00879
- RRIRDRPPRLPRPRPRPIIEPRP — lower, 0.479
- RRIRPRPPRLPRPRPRPQTWPRP — lower, -0.254
- RRIRVRPPRLPRPRPRPDKVPRP — lower, -0.332
- RRIRTRPPRLPRPRPRPESCPRP — lower, 0.145
- RRIRSRPPRLPRPRPRPGSNPRP — lower, -0.00709
- RRIRGRPPRLPRPRPRPLMHPRP — lower, 0.592
- RRIRWRPPRLPRPRPRPISLPRP — lower, -0.161
- RRIRARPPRLPRPRPRPDWPPRP — lower, 0.98
- RRIRERPPRLPRPRPRPMHGPRP — lower, -0.00992
- RRIRRRPPRLPRPRPRPLNTPRP — lower, -0.244
- RRIRYRPPRLPRPRPRPPNLPRP — lower, -0.248
- RRIRARPPRLPRPRPRPHQTPRP — lower, -0.103
- RRIRWRPPRLPRPRPRPECTPRP — lower, 0.255
- RRIRQRPPRLPRPRPRPEREPRP — lower, 0.0841
- RRIRSRPPRLPRPRPRPQGFPRP — lower, -0.0809
- RRIRSRPPRLPRPRPRPWCGPRP — lower, 0.0715
- RRIRPRPPRLPRPRPRPHKAPRP — lower, 0.0705
- RRIRTRPPRLPRPRPRPCVSPRP — lower, -0.221
- RRIRIRPPRLPRPRPRPTFAPRP — lower, -0.176
- RRIRWRPPRLPRPRPRPMRCPRP — lower, 0.353
- RRIRMRPPRLPRPRPRPQISPRP — lower, -0.28
- RRIRKRPPRLPRPRPRPIVQPRP — lower, 0.000772
- RRIRVRPPRLPRPRPRPWRYPRP — lower, 0.0359
- RRIRIRPPRLPRPRPRPLCHPRP — lower, -0.626
- RRIRDRPPRLPRPRPRPQNMPRP — lower, -0.574
- RRIRFRPPRLPRPRPRPWSWPRP — lower, -0.169
- RRIRGRPPRLPRPRPRPDDFPRP — lower, 0.0116
- RRIRGRPPRLPRPRPRPQPWPRP — lower, 0.68
- RRIRQRPPRLPRPRPRPCVIPRP — lower, -0.409
- RRIRGRPPRLPRPRPRPAESPRP — lower, 0.764
- RRIRDRPPRLPRPRPRPQMVPRP — lower, -0.0637
- RRIRARPPRLPRPRPRPQLAPRP — lower, 0.766
- RRIRMRPPRLPRPRPRPRHHPRP — lower, 0.415
- RRIRLRPPRLPRPRPRPHLKPRP — lower, -0.564
- RRIRYRPPRLPRPRPRPSKWPRP — lower, -0.155
- RRIRNRPPRLPRPRPRPRYEPRP — lower, -0.27
- RRIRKRPPRLPRPRPRPWELPRP — lower, 0.221
- RRIRDRPPRLPRPRPRPWNRPRP — lower, -0.339
- RRIRFRPPRLPRPRPRPSIDPRP — lower, -0.433
- RRIRDRPPRLPRPRPRPCHQPRP — lower, -0.328
- RRIRTRPPRLPRPRPRPRMEPRP — lower, -0.0325
- RRIRHRPPRLPRPRPRPYHHPRP — lower, -0.607
- RRIRQRPPRLPRPRPRPVLMPRP — lower, 0.111
- RRIRMRPPRLPRPRPRPDKGPRP — lower, -0.0141
- RRIRRRPPRLPRPRPRPPKQPRP — lower, 0.459
- RRIRPRPPRLPRPRPRPHWCPRP — lower, -0.159
- RRIRTRPPRLPRPRPRPPKRPRP — lower, 0.302
- RRIRYRPPRLPRPRPRPFRQPRP — lower, 0.0775
- RRIRHRPPRLPRPRPRPFLQPRP — lower, 0.0325
